Source: patent US12319931B2, “Oncolytic virus expressing interferon and application therefor” (SHANGHAI YUANSONG BIOTECHNOLOGY CO. LTD., priority 2018, dated 2025)

Test system: HCC1806 xenograft tumor
Test: HCC1806 xenograft tumor model in nude mice
Type: in vivo
Conditions: virus intratumoral 1.5×10^10 VP/time/mouse, rIFN intraperitoneal 20 μg/time/mouse, 5 times
Method: When the experimental nude mice reached 5 weeks old, they were injected with 2×10^6 HCC1806 tumor cells for tumor formation. […] The tumor size was observed and measured every 3 days after administration of oncolytic virus.
Specifically, the triple negative breast cancer cell line HCC1806 xenograft tumor of nude mice with less immune cell infiltration were used for in vivo drug efficacy testing. […] The tumor size was measured every three days.

B1: recombinant interferon protein: consensus interferon rIFN protein; synthetic interferon with roughly the average sequence of human interferon-α subtypes (protein)
chain 1: MALSFSLLMAVLVLSYKSICSLGMCDLPQTHSLGNRRALILLAQMRRISPFSCLKDRHDFGFPQEEFDGNQFQKAQAISVLHEMIQQTFNLFSTKDSSAAWDESLLEKFYTELYQQLNDLEACVIQEVGVEETPLMNVDSILAVKKYFQRITLYLTEKKYSPCAWEVVRAEIMRSFSLSTNLQERLRRKE
chain 2: MALSFSLLMAVLVLSYKSICSLGMCDLPQTHSLGNRRALILLAQMRRISPFSCLKDRHDFGFPQEEFDGNQFQKAQAISVLHEMIQQTFNLFSTKDSSAAWDESLLEKFYTELYQQLNDLEACVIQEVGVEETPLMNVDSILAVKKYFQRITLYLTEKKYSPCAWEVVRAEIMRSFSLSTNLQERLRRKE
chain 3: MALSFSLLMAVLVLSYKSICSLGMCDLPQTHSLGNRRALILLAQMRRISPFSCLKDRHDFGFPQEEFDGNQFQKAQAISVLHEMIQQTFNLFSTKDSSAAWDESLLEKFYTELYQQLNDLEACVIQEVGVEETPLMNVDSILAVKKYFQRITLYLTEKKYSPCAWEVVRAEIMRSFSLSTNLQERLRRKE
modifications: consensus interferon coding sequence IFN-1; consensus interferon coding sequence IFN-2; consensus interferon coding sequence IFN-3
- tumor-suppressive effect: no obvious tumor-suppressive effect
